Source: the supplement of paper PMC7877785
± gives the uncertainty stated by the source.

Test: self-splicing fitness, log relative to wild type (ln ratio); higher = more splicing; Tetrahymena group I intron in knt gene, E. coli kanamycin selection, DiMSum; sequences stand for … in CUCUCU…GGAGGGAAAAGUUAUCAGGCAUGCACCUGGUAGCUAGUCUUUAAACCAAUAGAUUGCAUCGGUUUAAAAGGCAAGACCGUCAAAUUGCGGGAAAGGGGUCAACAGCCGUUCAGUACCAAGUCUCAGGGGAAACUUUGAGAUGGCCUUGCAAAGGGUAUGGUAAUAAGCUGACGGACAUGGUCCUAACCACGCAGCCAAGUCCUAAGUCAACAGAUCUUCUGUUGAUAUGGAUGCAGUUCACAGACUAAAUGUCGGUCGGGGAAGAUGUAUUCUUCUCAUAAGAUAUAGUCGGACCUCUCCUUAAUGGGAGCUAGCGGAUGAAGUGAUGCAACACUGGAGCCGCUGGGAACUAAUUUGUAUGCGAAAGUAUAUUGAUUAGUUUUGGAGUACUCGUGGUCG
Outline: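 The eight P1ex-region nucleotides of an intron in the knt kanamycin-resistance gene on pET-22b(+) were all randomised and the library put into E. coli BL21(DE3). Six replicate transformations were grown overnight at 37°C or 30°C on LB agar with or without 25 μg/mL kanamycin, together with 100 μg/mL carbenicillin, 50 μM IPTG and 0.2% rhamnose. Colonies were pooled and amplicon-sequenced on an Illumina HiSeq 2500. Fitness from DiMSum is the error-weighted combination of wild-type-normalised replicate fold changes, kanamycin over none.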

CGCAAGCAAUAUUACGUUCC
self-splicing fitness (ln) (30 °C): -2.95 ± 0.15 | self-splicing fitness (ln) (37 °C): -1.06 ± 0.12

CGCAAGCAAUAUUACGUUUU
self-splicing fitness (ln) (30 °C): -4.46 ± 0.15 | self-splicing fitness (ln) (37 °C): -2.83 ± 0.16

CGCCAGCAAUAUUACGAAUC
self-splicing fitness (ln) (30 °C): -2.75 ± 0.16 | self-splicing fitness (ln) (37 °C): -2.92 ± 0.26

CGCCAGCAAUAUUACGACAU
self-splicing fitness (ln) (30 °C): -3.741 ± 0.023 | self-splicing fitness (ln) (37 °C): -2.75 ± 0.038

CGCCAGCAAUAUUACGACGA
self-splicing fitness (ln) (30 °C): -2.77 ± 0.15 | self-splicing fitness (ln) (37 °C): -1.48 ± 0.14

CGCCAGCAAUAUUACGACUU
self-splicing fitness (ln) (30 °C): -3.35 ± 0.2 | self-splicing fitness (ln) (37 °C): -1.82 ± 0.18

CGCCAGCAAUAUUACGAGAC
self-splicing fitness (ln) (30 °C): -3.23 ± 0.33 | self-splicing fitness (ln) (37 °C): -3.54 ± 0.46

CGCCAGCAAUAUUACGAGAG
self-splicing fitness (ln) (30 °C): -3.58 ± 0.13 | self-splicing fitness (ln) (37 °C): -1.37 ± 0.098

CGCCAGCAAUAUUACGAGCG
self-splicing fitness (ln) (30 °C): -2.66 ± 0.17 | self-splicing fitness (ln) (37 °C): -2.56 ± 0.23

CGCCAGCAAUAUUACGAGUU
self-splicing fitness (ln) (30 °C): -3.19 ± 0.15 | self-splicing fitness (ln) (37 °C): -3.16 ± 0.2

CGCCAGCAAUAUUACGAUCC
self-splicing fitness (ln) (30 °C): -3.12 ± 0.37

CGCCAGCAAUAUUACGAUCU
self-splicing fitness (ln) (30 °C): -2.5 ± 0.26 | self-splicing fitness (ln) (37 °C): -2.42 ± 0.35

CGCCAGCAAUAUUACGCCAG
self-splicing fitness (ln) (30 °C): -0.963 ± 0.12 | self-splicing fitness (ln) (37 °C): -0.172 ± 0.15

CGCCAGCAAUAUUACGCUAU
self-splicing fitness (ln) (30 °C): -3.43 ± 0.15 | self-splicing fitness (ln) (37 °C): -3.01 ± 0.21

CGCCAGCAAUAUUACGGCAA
self-splicing fitness (ln) (30 °C): -0.604 ± 0.087 | self-splicing fitness (ln) (37 °C): -0.186 ± 0.088

CGCCAGCAAUAUUACGGCAC
self-splicing fitness (ln) (30 °C): -2.37 ± 0.1 | self-splicing fitness (ln) (37 °C): -1.04 ± 0.097

CGCCAGCAAUAUUACGGGGU
self-splicing fitness (ln) (30 °C): -3.35 ± 0.15 | self-splicing fitness (ln) (37 °C): -2.36 ± 0.17

CGCCAGCAAUAUUACGGUAA
self-splicing fitness (ln) (30 °C): -0.8 ± 0.069 | self-splicing fitness (ln) (37 °C): 0.0236 ± 0.072

CGCCAGCAAUAUUACGGUAU
self-splicing fitness (ln) (30 °C): -2.65 ± 0.088 | self-splicing fitness (ln) (37 °C): -0.699 ± 0.1

CGCCAGCAAUAUUACGUAGA
self-splicing fitness (ln) (30 °C): -1.25 ± 0.086 | self-splicing fitness (ln) (37 °C): -1.18 ± 0.13

CGCCAGCAAUAUUACGUCAA
self-splicing fitness (ln) (30 °C): -2.51 ± 0.17 | self-splicing fitness (ln) (37 °C): -2.32 ± 0.17

CGCCAGCAAUAUUACGUCAU
self-splicing fitness (ln) (30 °C): -4.39 ± 0.19 | self-splicing fitness (ln) (37 °C): -3.12 ± 0.18

CGCCAGCAAUAUUACGUCUC
self-splicing fitness (ln) (30 °C): -4.51 ± 0.23 | self-splicing fitness (ln) (37 °C): -2.45 ± 0.16

CGCCAGCAAUAUUACGUGAC
self-splicing fitness (ln) (30 °C): -3.64 ± 0.32 | self-splicing fitness (ln) (37 °C): -2.96 ± 0.33

CGCCAGCAAUAUUACGUGCC
self-splicing fitness (ln) (30 °C): -1.13 ± 0.091 | self-splicing fitness (ln) (37 °C): -0.673 ± 0.11

CGCGAGCAAUAUUACGACCU
self-splicing fitness (ln) (30 °C): -0.582 ± 0.16 | self-splicing fitness (ln) (37 °C): -1.81 ± 0.21

CGCGAGCAAUAUUACGAUCU
self-splicing fitness (ln) (30 °C): -3.42 ± 0.21 | self-splicing fitness (ln) (37 °C): -1.66 ± 0.14

CGCGAGCAAUAUUACGCCAG
self-splicing fitness (ln) (30 °C): -2.74 ± 0.18 | self-splicing fitness (ln) (37 °C): -2.75 ± 0.24

CGCGAGCAAUAUUACGCCCU
self-splicing fitness (ln) (30 °C): -3.1 ± 0.29 | self-splicing fitness (ln) (37 °C): -2.5 ± 0.39

CGCGAGCAAUAUUACGCGUC
self-splicing fitness (ln) (30 °C): -3.67 ± 0.28 | self-splicing fitness (ln) (37 °C): -2.68 ± 0.22

CGCGAGCAAUAUUACGGACG
self-splicing fitness (ln) (37 °C): -1.75 ± 0.42

CGCGAGCAAUAUUACGGCAG
self-splicing fitness (ln) (30 °C): -0.761 ± 0.1 | self-splicing fitness (ln) (37 °C): -0.243 ± 0.13

CGCGAGCAAUAUUACGGCUG
self-splicing fitness (ln) (30 °C): -0.795 ± 0.094 | self-splicing fitness (ln) (37 °C): -0.637 ± 0.13

CGCGAGCAAUAUUACGGGGG
self-splicing fitness (ln) (30 °C): -3.45 ± 0.38 | self-splicing fitness (ln) (37 °C): -3.07 ± 0.32

CGCGAGCAAUAUUACGUACC
self-splicing fitness (ln) (37 °C): -2.69 ± 0.35

CGCGAGCAAUAUUACGUCGA
self-splicing fitness (ln) (30 °C): -4.28 ± 0.46 | self-splicing fitness (ln) (37 °C): -2.73 ± 0.24

CGCGAGCAAUAUUACGUCUA
self-splicing fitness (ln) (30 °C): -1.42 ± 0.17 | self-splicing fitness (ln) (37 °C): -0.973 ± 0.26

CGCGAGCAAUAUUACGUGCU
self-splicing fitness (ln) (30 °C): -2.71 ± 0.14 | self-splicing fitness (ln) (37 °C): -2 ± 0.22

CGCGAGCAAUAUUACGUGGC
self-splicing fitness (ln) (30 °C): -2.53 ± 0.18 | self-splicing fitness (ln) (37 °C): -2.16 ± 0.18

CGCGAGCAAUAUUACGUUAA
self-splicing fitness (ln) (30 °C): -3.18 ± 0.16 | self-splicing fitness (ln) (37 °C): -4.09 ± 0.36

CGCUAGCAAUAUUACGAAAA
self-splicing fitness (ln) (30 °C): -1.65 ± 0.16 | self-splicing fitness (ln) (37 °C): -1.98 ± 0.15

CGCUAGCAAUAUUACGAAUA
self-splicing fitness (ln) (30 °C): -2.58 ± 0.19 | self-splicing fitness (ln) (37 °C): -2.57 ± 0.23

CGCUAGCAAUAUUACGAUGA
self-splicing fitness (ln) (30 °C): -1.14 ± 0.1 | self-splicing fitness (ln) (37 °C): -0.401 ± 0.087

CGCUAGCAAUAUUACGCCAU
self-splicing fitness (ln) (30 °C): -3.62 ± 0.3 | self-splicing fitness (ln) (37 °C): -1.27 ± 0.27

CGCUAGCAAUAUUACGCUAC
self-splicing fitness (ln) (37 °C): -2.29 ± 0.5

CGCUAGCAAUAUUACGGACU
self-splicing fitness (ln) (30 °C): -0.928 ± 0.09 | self-splicing fitness (ln) (37 °C): -1.08 ± 0.12

CGCUAGCAAUAUUACGGCCG
self-splicing fitness (ln) (30 °C): -1.19 ± 0.17 | self-splicing fitness (ln) (37 °C): -1.11 ± 0.14

CGCUAGCAAUAUUACGGCUU
self-splicing fitness (ln) (30 °C): -0.961 ± 0.081 | self-splicing fitness (ln) (37 °C): -0.559 ± 0.1

CGCUAGCAAUAUUACGGGAC
self-splicing fitness (ln) (37 °C): -2.63 ± 0.22

CGCUAGCAAUAUUACGGGAG
self-splicing fitness (ln) (30 °C): -2.79 ± 0.1 | self-splicing fitness (ln) (37 °C): -1.43 ± 0.082
